We go through one substance from paper PMC6081378.

This experiment deals with rHA1_(1-326), recombinant hemagglutinin HA1 fragment (residues 1-326) of influenza A virus H1N1 strain A/California/04/2009 (influenza A virus subtype H1N1 strain A/California/04/2009). The experiment is described as follows: SEC.

For the substance “rHA1_(1-326), recombinant hemagglutinin HA1 fragment (residues 1-326) of influenza A virus H1N1 strain A/California/04/2009 (domain or fragment)”, the percent of the protein as dimers and trimers was determined as 70.5%.
